Reference: US7897569B2, “Use of HMGB fragments as anti-inflammatory agents” (The Feinstein Institute for Medical Research, priority 2001, dated 2011)

How the values were obtained:
[1] = tested on: RAW 264.7 cells; test: 125I-HMGB1 cell surface binding to RAW 264.7 cells; set-up: species or system murine; conditions: 4° C.
Procedure: Purified HMGB1 protein (10 μg) was radiolabeled with 0.2 mCi of carrier-free ^125I (NEN Life Science products Inc., Boston, Mass.) using Iodo-beads (Pierce, Rockford, Ill.) according to the manufacturer's instructions. ^125I-HMGB1 protein was separated from un-reacted ^125I by gel chromatography columns (P6 Micro Bio-Spin Chromatography Columns, Bio-Rad Laboratories, Hercules, Calif.) previously equilibrated with 300 mM sodium chloride, 17.5 mM sodium citrate, pH 7.0 and 0.1% bovine serum albumin (BSA). The specific activity of the eluted HMGB1 was about 2.8×10^6 cpm/μg protein. […] The radioactivity in the lysate was then measured using a gamma counter. Specific binding was determined as total binding minus the radioactivity obtained in the presence of an excess amount of unlabeled HMGB1 or A box proteins.
To determine whether the HMGB1 A box acts as an antagonist by displacing HMGB1 binding, ^125I-labeled-HMGB1 was added to macrophage cultures and binding was measured at 4° C. after 2 hours. […] The specificity of binding was assessed as described in Example 1.
In addition, ^125I-HMG-1 binding was measured in RAW 264.7 cells plated on 24-well dishes and incubated with ^125I HMGB1 alone or in the presence of unlabeled HMGB1 or A box. […] The data are expressed as the percent of total counts obtained in the absence of unlabeled HMGB1 proteins (2,382,179 CPM/well).

[2] = tested on: NF-kB-dependent ELAM promoter; test: NF-kB-dependent ELAM promoter luciferase reporter in RAW 264.7 macrophages; format: cell-based, murine; conditions: HMGB1 100 ng/ml or B box 10 μg/ml, 5 hours; for level of luciferase stimulation: co-transfected with MyD 88 dominant negative
Procedure: To examine the effects of HMGB1 or HMGB1 B Box on the NF-kB-dependent ELAM promoter, the following experiment was carried out. RAW 264.7 macrophages were transiently co-transfected with an expression plasmid encoding a murine MyD 88-dominant-negative (DN) mutant (corresponding to amino acids 146-296), or empty vector, plus a luciferase reporter plasmid under the control of the NF-kB-dependent ELAM promoter, as described by Means et al. (J. Immunol. 166:4074-4082, 2001). A portion of the cells were then stimulated with full-length HMBG1 (100 ng/ml), or purified HMGB1 B box (10 μg/ml), for 5 hours. Cells were then harvested and luciferase activity was measured, using standard methods. All transfections were performed in triplicate, repeated at least three times, and a single representative experiment is shown in FIG. 11B.

[3] = molecular target: T1, human Toll-like receptor 4 (TLR4) (Homo sapiens, UniProt O00206); test: CD25 expression in CHO/TLR2 and CHO/TLR4 ELAM-CD25 reporter cells (flow cytometry); format: cell-based; conditions: CHO/TLR4 cells versus CHO/TLR2; HMG-1 100 ng/ml or B box 10 μg/ml, 18 hours
T1 construct: expressed in transfected cells; host or cells: CHO (CHO/TLR4, ELAM-CD25 reporter)
T1 sequence (O00206 24-839): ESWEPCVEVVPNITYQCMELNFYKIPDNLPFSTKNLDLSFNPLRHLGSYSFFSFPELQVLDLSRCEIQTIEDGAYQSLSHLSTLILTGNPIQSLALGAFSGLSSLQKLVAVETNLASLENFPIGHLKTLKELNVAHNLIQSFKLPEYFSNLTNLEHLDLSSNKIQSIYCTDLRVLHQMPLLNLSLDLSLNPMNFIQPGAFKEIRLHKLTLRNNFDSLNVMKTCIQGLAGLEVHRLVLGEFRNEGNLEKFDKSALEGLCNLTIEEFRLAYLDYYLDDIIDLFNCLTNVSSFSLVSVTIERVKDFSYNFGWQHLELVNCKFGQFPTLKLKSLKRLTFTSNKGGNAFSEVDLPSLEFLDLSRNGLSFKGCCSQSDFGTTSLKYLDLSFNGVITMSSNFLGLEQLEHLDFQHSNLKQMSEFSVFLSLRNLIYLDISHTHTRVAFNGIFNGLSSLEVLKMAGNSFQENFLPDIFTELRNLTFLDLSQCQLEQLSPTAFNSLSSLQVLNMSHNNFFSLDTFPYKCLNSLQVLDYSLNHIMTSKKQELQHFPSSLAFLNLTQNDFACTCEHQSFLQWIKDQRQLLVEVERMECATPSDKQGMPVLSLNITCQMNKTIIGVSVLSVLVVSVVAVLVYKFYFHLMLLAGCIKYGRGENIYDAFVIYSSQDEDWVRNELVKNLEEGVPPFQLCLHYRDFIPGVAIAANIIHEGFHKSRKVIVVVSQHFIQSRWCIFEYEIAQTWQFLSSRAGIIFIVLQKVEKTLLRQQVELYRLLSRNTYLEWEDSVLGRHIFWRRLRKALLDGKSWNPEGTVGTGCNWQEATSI
Procedure: The effect of HMGB1 or HMGB1 B box on NF-kB activation was also examined. CHO reporter cell lines that constitutively express human Toll-like receptor 2 (TLR2) or Toll-like receptor 4 (TLR4) have been previously described (Means et al., J. Immunology, 163:3920-3927, 1999). These reporter lines also contain a stably transfected ELAM-CD25 reporter gene, and express human CD25 on their surface as a consequence of NF-kB activation. CHO/TLR2 and CHO/TLR4 cells were stimulated with IL-1 (10 ng/ml), purified full-length HMG-1 (100 ng/ml), or purified B box (10 μg/ml) for 18 hours. Following stimulation, cells were stained with a PE-labeled anti-CD25 monoclonal antibody and surface expression of CD25 was measured by flow cytometry. The results of this study are shown ib FIG. 11C. Data are expressed as the ratio (fold-activation) of the percent of CD25^+ cells in unstimulated and stimulated cell populations that were gated to exclude the lowest 5% of cells based on mean FL1 fluorescence.

B1: HMGB1: Recombinant full length human HMGB1, GST fusion system, SEQ ID NO:18; recombinant rat HMGB1 used in some experiments (protein)
chain: MGKGDPKKPTGKMSSYAFFVQTCREEHKKKHPDASVNFSEFSKKCSERWKTMSAKEKGKFEDMAKADKARYEREMKTYIPPKGETKKKFKDPNAPKRLPSAFFLFCSEYRPKIKGEHPGLSIGDVAKKLGEMWNNTAADDKQPYEKKAAKLKEKYEKDIAAYRAKGKPDAAKKGVVKAEKSKKKKEEEEDEEDEEDEEEEEDEEDEEDEEEDDDDE
modifications: GST fusion
notes: recombinant rat HMGB1 used in some experiments
- 125I-HMGB1 binding kinetics ([1]; RAW 264.7 cells): saturable first order binding kinetics
- level of luciferase stimulation [2]: decreased
- luciferase activity ([2]; not co-transfected with MyD 88 dominant negative): stimulated luciferase activity
- CD25 expression [3]: decreased CD25 expression compared to the CHO/TLR2 samples

B2: B box: Human HMGB1 mutant containing only the B box, SEQ ID NO:20 (protein)
chain: FKDPNAPKRLPSAFFLFCSEYRPKIKGEHPGLSIGDVAKKLGEMWNNTAADDKQPYEKKAAKLKEKYEKDIAAY
- level of luciferase stimulation [2]: This effect was also observed
- CD25 expression [3]: decreased CD25 expression compared to the CHO/TLR2 samples

B3: A box: Human HMGB1 mutant containing only the A box, SEQ ID NO:21 (A box SEQ ID NO:22) (protein)
chain: MGKGDPKKPTGKMSSYAFFVQTCREEHKKKHPDASVNFSEFSKKCSERWKTMSAKEKGKFEDMAKADKARYEREMKTYIPPKGET
- displacement of 125I-HMGB1 binding ([1]; 5,000 molar excess unlabeled A box, 2 hours): competitive antagonist of HMGB1 activity in vitro
